Results taken from article PMC7397465, “Crystal structure of the Rab-binding domain of Rab11 family-interacting protein 2” (Acta Crystallographica. Section F, Structural Biology …, 2020).

Target: the molecule itself
Experiment: crystal structure; vapor diffusion, 298 K; protein 6 mg/ml in 150 mM NaCl, 10 mM Tris-HCl, 1 mM DTT pH 7.5; reservoir 0.01 M cobalt chloride, 0.1 M sodium acetate pH 4.8, 1 M 1,6-hexanediol; 2.3 A; four monomers in the asymmetric unit

B1: Rab-binding domain of Rab11 family-interacting protein 2 (domain or fragment, Homo sapiens)
chain: GSHMSNPFDATAGYRSLTYEEVLQELVKHKELLRRKDTHIRELEDYIDNLLVRVMEETPSILRVPYEPSRKAGKFSNS
notes: not FIP2 residues by the stated limits 439-512; Expression vector pNIC-Bsa4 with a TEV protease cleavage site; tag cleaved with TEV before crystallization; In the crystal at least the first seven and the last 15 residues are disordered (monomers seen from 445-451 to 496 or 497); also called FIP2; RBD of FIP2; source: Escherichia coli BL21(DE3), purified (nickel agarose, TEV cleavage, Mono Q, …)
stoichiometry N: 4
